Data from publication PMC7969950.

B1: wild-type Flag-CTNNA1 (in MCF10A cells), P35221 Y419A; V422A; L897A; F900A (protein)
chain: MTAVHAGNINFKWDPKSLEIRTLAVERLLEPLVTQVTTLVNTNSKGPSNKKRGRSKKAHVLAASVEQATENFLEKGDKIAKESQFLKEELVAAVEDVRKQGDLMKAAAGEFADDPCSSVKRGNMVRAARALLSAVTRLLILADMADVYKLLVQLKVVEDGILKLRNAGNEQDLGIQYKALKPEVDKLNIMAAKRQQELKDVGHRDQMAAARGILQKNVPILYTASQACLQHPDVAAYKANRDLIYKQLQQAVTGISNAAQATASDDASQHQGGGGGELAYALNNFDKQIIVDPLSFSEERFRPSLEERLESIISGAALMADSSCTRDDRRERIVAECNAVRQALQDLLSEYMGNAGRKERSDALNSAIDKMTKKTRDLRRQLRKAVMDHVSDSFLETNVPLLVLIEAAKNGNEKEVKEAAQAFREHANKLIEVANLACSISNNEEGVKLVRMSASQLEALCPQVINAALALAAKPQSKLAQENMDLFKEQWEKQVRVLTDAVDDITSIDDFLAVSENHILEDVNKCVIALQEKDVDGLDRTAGAIRGRAARVIHVVTSEMDNYEPGVYTEKVLEATKLLSNTVMPRFTEQVEAAVEALSSDPAQPMDENEFIDASRLVYDGIRDIRKAVLMIRTPEELDDSDFETEDFDVRSRTSVQTEDDQLIAGQSARAIMAQLPQEQKAKIAEQVASFQEEKSKLDAEVSKWDDSGNDIIVLAKQMCMIMMEMTDFTRGKGPLKNTSDVISAAKKIAEAGSRMDKLGRTIADHCPDSACKQDLLAYLQRIALYCHQLNICSKVKAEVQNLGGELVVSGVDSAMSLIQAAKNLMNAVVQTVKASYVASTKYQKSQGMASLNLPAVSWKMKAPEKKPLVKREKQDETQTKIKRASQKKHVNPVQAASEAKAMDSI
B2: wild-type Flag-CTNNA1 (in MCF10A cells), P35221 L897A; F900A (protein)
chain: MTAVHAGNINFKWDPKSLEIRTLAVERLLEPLVTQVTTLVNTNSKGPSNKKRGRSKKAHVLAASVEQATENFLEKGDKIAKESQFLKEELVAAVEDVRKQGDLMKAAAGEFADDPCSSVKRGNMVRAARALLSAVTRLLILADMADVYKLLVQLKVVEDGILKLRNAGNEQDLGIQYKALKPEVDKLNIMAAKRQQELKDVGHRDQMAAARGILQKNVPILYTASQACLQHPDVAAYKANRDLIYKQLQQAVTGISNAAQATASDDASQHQGGGGGELAYALNNFDKQIIVDPLSFSEERFRPSLEERLESIISGAALMADSSCTRDDRRERIVAECNAVRQALQDLLSEYMGNAGRKERSDALNSAIDKMTKKTRDLRRQLRKAVMDHVSDSFLETNVPLLVLIEAAKNGNEKEVKEYAQVFREHANKLIEVANLACSISNNEEGVKLVRMSASQLEALCPQVINAALALAAKPQSKLAQENMDLFKEQWEKQVRVLTDAVDDITSIDDFLAVSENHILEDVNKCVIALQEKDVDGLDRTAGAIRGRAARVIHVVTSEMDNYEPGVYTEKVLEATKLLSNTVMPRFTEQVEAAVEALSSDPAQPMDENEFIDASRLVYDGIRDIRKAVLMIRTPEELDDSDFETEDFDVRSRTSVQTEDDQLIAGQSARAIMAQLPQEQKAKIAEQVASFQEEKSKLDAEVSKWDDSGNDIIVLAKQMCMIMMEMTDFTRGKGPLKNTSDVISAAKKIAEAGSRMDKLGRTIADHCPDSACKQDLLAYLQRIALYCHQLNICSKVKAEVQNLGGELVVSGVDSAMSLIQAAKNLMNAVVQTVKASYVASTKYQKSQGMASLNLPAVSWKMKAPEKKPLVKREKQDETQTKIKRASQKKHVNPVQAASEAKAMDSI
B3: wild-type Flag-CTNNA1 (in MCF10A cells), P35221 Y419A; V422A (protein)
chain: MTAVHAGNINFKWDPKSLEIRTLAVERLLEPLVTQVTTLVNTNSKGPSNKKRGRSKKAHVLAASVEQATENFLEKGDKIAKESQFLKEELVAAVEDVRKQGDLMKAAAGEFADDPCSSVKRGNMVRAARALLSAVTRLLILADMADVYKLLVQLKVVEDGILKLRNAGNEQDLGIQYKALKPEVDKLNIMAAKRQQELKDVGHRDQMAAARGILQKNVPILYTASQACLQHPDVAAYKANRDLIYKQLQQAVTGISNAAQATASDDASQHQGGGGGELAYALNNFDKQIIVDPLSFSEERFRPSLEERLESIISGAALMADSSCTRDDRRERIVAECNAVRQALQDLLSEYMGNAGRKERSDALNSAIDKMTKKTRDLRRQLRKAVMDHVSDSFLETNVPLLVLIEAAKNGNEKEVKEAAQAFREHANKLIEVANLACSISNNEEGVKLVRMSASQLEALCPQVINAALALAAKPQSKLAQENMDLFKEQWEKQVRVLTDAVDDITSIDDFLAVSENHILEDVNKCVIALQEKDVDGLDRTAGAIRGRAARVIHVVTSEMDNYEPGVYTEKVLEATKLLSNTVMPRFTEQVEAAVEALSSDPAQPMDENEFIDASRLVYDGIRDIRKAVLMIRTPEELDDSDFETEDFDVRSRTSVQTEDDQLIAGQSARAIMAQLPQEQKAKIAEQVASFQEEKSKLDAEVSKWDDSGNDIIVLAKQMCMIMMEMTDFTRGKGPLKNTSDVISAAKKIAEAGSRMDKLGRTIADHCPDSACKQDLLAYLQRIALYCHQLNICSKVKAEVQNLGGELVVSGVDSAMSLIQAAKNLMNAVVQTVKASYVASTKYQKSQGMASLNLPAVSWKMKAPEKKPLVKREKQDETQTKIKRASQKKHVNPVQALSEFKAMDSI

Target: endogenous LC3 (MCF10A cells), Q9GZQ8
Assay: co-immunoprecipitation (Flag-Trap), immunoblot
Settings: chain shown with the change; BafA1-treated MCF10A cells; parent: 1.0

Binder | ratio to parent
B1 | 0.29
B2 | 0.22
B3 | 0.23
